Source: the RNAGym collection of RNA variant scans (doi:10.1093/molbev/msab373)

B1: Azoarcus group I ribozyme (parent)
chain: GUGCCUUGCGCCGGGAAACCACGCAAGGGAUGGUGUCAAAUUCGGCGAAACCUAAGCGCCCGCCCGGGCGUAUGGCAACGCCGAGCCAAGCUUCGGCGCCUGCGCCGAUGAAGGUGUAGAGACUAGACGGCACCCACCUAAGGCAAACGCUAUGGUGAAGGCAUAGUCCAGGGAGUGGCGAAAGUCACACAAACCGG

Variants of: B1
Assay: reverse-splicing fitness (ratio to wild type); higher = more active; in vitro selection; Mg2+ level not given
In short: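 An in vitro group I ribozyme library with randomized positions was T7-transcribed and gel-purified. In triplicate, 10 pmol RNA in EPPS pH 7.5 was reacted with 50 pmoles of a 30-nt RNA substrate for 1 h at 37 °C across several added MgCl2 levels (1–48 mM), then stopped with EDTA. Products were reverse transcribed from a substrate-complementary primer, PCR-amplified and sequenced (HiSeq 4000). Fitness is a variant's read proportion after selection over that before, normalised to wild type.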

| Variant | reverse-splicing fitness |
| --- | --- |
| C82G A111U A120C A145G C150G C169G U176A | 0.0117 |
| C82G A111U A120C A145G C150G C169G U176C | 0.0139 |
| C82G A111U A120C A145G C150G C169G U176G | 0.00661 |
| C82G A111G C150G C169A U176A | 0.014 |
| C82G A111G C150G C169A U176C | 0.0166 |
| C82G A111G C150G C169A U176G | 0.00786 |
| C82G A111G C150G U176G | 0.00548 |
| C82G A111G C150G U176C | 0.0225 |
| C82G A111G C150G U176A | 0.0136 |
| C82G A111U A120C A145G | 0.0543 |
| C82G A111U A120C A145C | 0.0408 |
| C82G A111U A120C A145G C169A U176A | 0.0222 |
| C82G A111U A120C A145G C169A U176C | 0.0267 |
| C82G A111U A120C A145G C169A U176G | 0.00615 |
| C82G A111U A120C A145G C150U C169U U176C | 0.0146 |
| C82G A111U A120C A145G C150U C169U U176G | 0.00687 |
| C82G A111U A120C A145G C150U C169U U176A | 0.0137 |
| C82G A111G C150U C169A U176C | 0.0178 |
| C82G A111G C150U C169A U176A | 0.0173 |
| C82G A111G C150U C169A U176G | 0.00685 |
| C82G A111U A120C A145G C150G | 0.0114 |

| Variant | reverse-splicing fitness |
| --- | --- |
| C82G A111U A120C A145G C150A | 0.0162 |
| C82G A111U A120C A145G C150U | 0.0415 |
| C82G A111U A120C A145C C169U | 0.0119 |
| C82G A111U A120C A145C C169G | 0.00986 |
| C82G A111U A120C A145C C169A | 0.00886 |
| C82G A111U A120C A145C C150A U176C | 0.0127 |
| C82G A111U A120C A145C C150A U176G | 0.0066 |
| C82G A111U A120C A145C C150A U176A | 0.0111 |
| C82G A111U A120C A145G C150G C169U | 0.0106 |
| C82G A111U A120C A145G C150G C169G | 0.00753 |
| C82G A111U A120C A145G C150G C169A | 0.00998 |
| C82G A111U A120C A145C C150A C169U U176A | 0.0126 |
| C82G A111U A120C A145C C150A C169U U176C | 0.0105 |
| C82G A111U A120C A145C C150A C169U U176G | 0.00605 |
| C82G A111G C150G C169A | 0.00975 |
| C82G A111G C150G C169U | 0.0107 |
| C82G A111G C150G C169G | 0.00817 |
| C82G A111U A120C A145C C150A C169G U176C | 0.0279 |
| C82G A111U A120C A145C C150A C169G U176G | 0.00687 |
| C82G A111U A120C A145C C150A C169G U176A | 0.0314 |
| C82G A111G C150G | 0.0256 |

| Variant | reverse-splicing fitness |
| --- | --- |
| C82G A111G C150U | 0.199 |
| C82G A111U A120C A145C C150U U176G | 0.00601 |
| C82G A111U A120C A145C C150U U176C | 0.0178 |
| C82G A111U A120C A145C C150U U176A | 0.0111 |
| C82G A111U | 0.387 |
| C82G A111U A120C A145C C169U U176C | 0.0128 |
| C82G A111U A120C A145C C169U U176A | 0.0148 |
| C82G A111U A120C A145C C169U U176G | 0.00455 |
| C82G A111G C150U C169G U176A | 0.0165 |
| C82G A111G C150U C169G U176G | 0.00611 |
| C82G A111G C150U C169G U176C | 0.0201 |
| C82G A111U A120C | 0.0483 |
| C82G A111U A120C A145C C169A U176G | 0.00544 |
| C82G A111U A120C A145C C169A U176C | 0.00941 |
| C82G A111U A120C A145C C169A U176A | 0.0193 |
| C82G A111U A120C A145G C150A C169G | 0.00949 |
| C82G A111U A120C A145G C150A C169U | 0.0121 |
| C82G A111U A120C A145G C150A C169A | 0.0113 |
| C82G A111U A120C A145C C150U C169G | 0.00854 |
| C82G A111U A120C A145C C150U C169U | 0.0113 |
| C82G A111U A120C A145C C150U C169A | 0.00911 |

| Variant | reverse-splicing fitness |
| --- | --- |
| C82G A111U A120C A145G C150U C169A | 0.0111 |
| C82G A111U A120C A145G C150U C169G | 0.00889 |
| C82G A111U A120C A145G C150U C169U | 0.0134 |
| C82G A111U A120C A145G C150G C169U U176C | 0.0123 |
| C82G A111U A120C A145G C150G C169U U176A | 0.0139 |
| C82G A111U A120C A145G C150G C169U U176G | 0.00871 |
| C82G A111G C150G C169U U176C | 0.0165 |
| C82G A111G C150G C169U U176A | 0.00973 |
| C82G A111G C150G C169U U176G | 0.008 |
| C82G A111U A120C A145G C150A C169G U176C | 0.0297 |
| C82G A111U A120C A145G C150A C169G U176A | 0.0181 |
| C82G A111U A120C A145G C150A C169G U176G | 0.00823 |
| C82G A111G C169U U176C | 0.0177 |
| C82G A111G C169U U176A | 0.0155 |
| C82G A111G C169U U176G | 0.00625 |
| C82G A111U A120C A145C C150U C169U U176A | 0.0127 |
| C82G A111U A120C A145C C150U C169U U176C | 0.0118 |
| C82G A111U A120C A145C C150U C169U U176G | 0.00678 |
| C82G A111G C150G C169G U176A | 0.0106 |
| C82G A111G C150G C169G U176C | 0.00922 |
